According to patent US20090081234A1 (published 2009):

Target: recombinant human TNFα (human, UniProt P01375 77-233)
Assay: cell-based or functional assay

recombinant human TNFα, sequence (P01375 77-233 limits assumed): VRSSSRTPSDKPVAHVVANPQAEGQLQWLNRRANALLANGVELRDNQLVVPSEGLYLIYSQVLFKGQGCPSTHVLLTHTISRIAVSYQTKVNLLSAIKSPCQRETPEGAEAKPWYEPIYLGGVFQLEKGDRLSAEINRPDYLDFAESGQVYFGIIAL

- neutralizing TNFα bioactivity: 4 fold
B1: TNV196 (antibody, V domains shown)
VH: QVQLVESGGGVVQPGRSLRLSCAASGFTFSSYAMHWVRQAPGKGLEWVAFISYDGSNKKSADSVKGRFTVSRDNSKNTLFLQMNSLRAEDTAVFYCARDRGIGAGGNYYYYGMDVWGQGTTVTVSS
VL: EIVLTQSPATLSLSPGERATLSCRASQSVYSYLAWYQQKPGQAPRLLIYDASNRATGIPARFSGSGSGTDFTLTISSLEPEDFAVYYCQQRSNWPPFTFGPGTKVDIK
